According to PMC8699594, “Improving the Substrate Affinity and Catalytic Efficiency of β-Glucosidase Bgl3A from Talaromyces leycettanus JCM12802 by Rational Design” (Biomolecules, 2021):

What was measured:
[1] = molecular target: T1, Bgl3A (Evansstolkia leycettana, UniProt A0A1B0VFN7); assay: p-nitrophenol release at […] nm, Michaelis-Menten fit; format: biochemical; conditions: read-out: pNPG / Km; 75 °C, pH 4.5, Na2HPO4-citric acid buffer
T1 construct: no tag mentioned

[2] = molecular target: T1, Bgl3A; assay: glucose release (GOD-POD), Michaelis-Menten fit; format: biochemical; conditions: read-out: Cellobiose / Km; 75 °C, pH 4.5, Na2HPO4-citric acid buffer
[3] = substrate: O=[N+]([O-])c1ccc(O[C@@H]2O[C@H](CO)[C@@H](O)[C@H](O)[C@H]2O)cc1; assay: purified protein; conditions: 75 °C, pH 4.5, Na2HPO4-citric acid buffer

T1 sequence (A0A1B0VFN7 entry or part of it): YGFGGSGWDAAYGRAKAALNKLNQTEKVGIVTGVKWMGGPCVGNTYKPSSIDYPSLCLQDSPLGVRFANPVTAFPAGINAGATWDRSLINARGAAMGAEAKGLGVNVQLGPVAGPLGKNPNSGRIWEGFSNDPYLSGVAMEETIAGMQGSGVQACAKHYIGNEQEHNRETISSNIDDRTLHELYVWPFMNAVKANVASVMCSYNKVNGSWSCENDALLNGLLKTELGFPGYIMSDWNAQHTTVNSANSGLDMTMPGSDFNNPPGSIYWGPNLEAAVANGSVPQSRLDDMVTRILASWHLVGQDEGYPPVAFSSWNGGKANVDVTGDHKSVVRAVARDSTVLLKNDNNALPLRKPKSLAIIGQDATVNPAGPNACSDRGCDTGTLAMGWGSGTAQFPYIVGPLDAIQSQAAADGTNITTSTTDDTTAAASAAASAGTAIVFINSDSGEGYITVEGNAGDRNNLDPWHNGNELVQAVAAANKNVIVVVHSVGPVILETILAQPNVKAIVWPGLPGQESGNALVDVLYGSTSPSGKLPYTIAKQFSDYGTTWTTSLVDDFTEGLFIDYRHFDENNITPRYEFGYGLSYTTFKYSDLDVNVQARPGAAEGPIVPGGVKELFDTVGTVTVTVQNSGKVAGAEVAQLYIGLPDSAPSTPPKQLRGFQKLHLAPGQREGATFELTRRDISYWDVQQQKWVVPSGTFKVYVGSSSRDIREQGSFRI

Km [1] [µM] | Km [2] [µM] | Molecule | Km [3] [µM] | kcat [3] [s⁻¹] | kcat/Km [3] [M⁻¹ s⁻¹]
180 ± 30 |  | O=[N+]([O-])c1ccc(O[C@@H]2O[C@H](CO)[C@@H](O)[C@H](O)[C@H]2O)cc1 [4-nitrophenyl β-D-glucopyranoside] |  |  | 
 | 10400 ± 400 | OC[C@H]1O[C@@H](O[C@H]2[C@H](O)[C@@H](O)C(O)O[C@@H]2CO)[C@H](O)[C@@H](O)[C@@H]1O (some centres unmarked) [cellobiose] |  |  | 
 |  | Bgl3A (Evansstolkia leycettana; F86Y) (protein) YGFGGSGWDAAYGRAKAALNKLNQTEKVGIVTGVKWMGGPCVGNTYKPSSIDYPSLCLQDSPLGVRYANPVTAFPAGINAGATWDRSLINARGAAMGAEAKGLGVNVQLGPVAGPLGKNPNSGRIWEGFSNDPYLSGVAMEETIAGMQGSGVQACAKHYIGNEQEHNRETISSNIDDRTLHELYVWPFMNAVKANVASVMCSYNKVNGSWSCENDALLNGLLKTELGFPGYIMSDWNAQHTTVNSANSGLDMTMPGSDFNNPPGSIYWGPNLEAAVANGSVPQSRLDDMVTRILASWHLVGQDEGYPPVAFSSWNGGKANVDVTGDHKSVVRAVARDSTVLLKNDNNALPLRKPKSLAIIGQDATVNPAGPNACSDRGCDTGTLAMGWGSGTAQFPYIVGPLDAIQSQAAADGTNITTSTTDDTTAAASAAASAGTAIVFINSDSGEGYITVEGNAGDRNNLDPWHNGNELVQAVAAANKNVIVVVHSVGPVILETILAQPNVKAIVWPGLPGQESGNALVDVLYGSTSPSGKLPYTIAKQFSDYGTTWTTSLVDDFTEGLFIDYRHFDENNITPRYEFGYGLSYTTFKYSDLDVNVQARPGAAEGPIVPGGVKELFDTVGTVTVTVQNSGKVAGAEVAQLYIGLPDSAPSTPPKQLRGFQKLHLAPGQREGATFELTRRDISYWDVQQQKWVVPSGTFKVYVGSSSRDIREQGSFRI | 240 ± 20 | 1770 | 7.45e+06
 |  | Bgl3A (Evansstolkia leycettana; M56E) (protein) YGFGGSGWDAAYGRAKAALNKLNQTEKVGIVTGVKWEGGPCVGNTYKPSSIDYPSLCLQDSPLGVRFANPVTAFPAGINAGATWDRSLINARGAAMGAEAKGLGVNVQLGPVAGPLGKNPNSGRIWEGFSNDPYLSGVAMEETIAGMQGSGVQACAKHYIGNEQEHNRETISSNIDDRTLHELYVWPFMNAVKANVASVMCSYNKVNGSWSCENDALLNGLLKTELGFPGYIMSDWNAQHTTVNSANSGLDMTMPGSDFNNPPGSIYWGPNLEAAVANGSVPQSRLDDMVTRILASWHLVGQDEGYPPVAFSSWNGGKANVDVTGDHKSVVRAVARDSTVLLKNDNNALPLRKPKSLAIIGQDATVNPAGPNACSDRGCDTGTLAMGWGSGTAQFPYIVGPLDAIQSQAAADGTNITTSTTDDTTAAASAAASAGTAIVFINSDSGEGYITVEGNAGDRNNLDPWHNGNELVQAVAAANKNVIVVVHSVGPVILETILAQPNVKAIVWPGLPGQESGNALVDVLYGSTSPSGKLPYTIAKQFSDYGTTWTTSLVDDFTEGLFIDYRHFDENNITPRYEFGYGLSYTTFKYSDLDVNVQARPGAAEGPIVPGGVKELFDTVGTVTVTVQNSGKVAGAEVAQLYIGLPDSAPSTPPKQLRGFQKLHLAPGQREGATFELTRRDISYWDVQQQKWVVPSGTFKVYVGSSSRDIREQGSFRI | 250 ± 30 | 1800 | 7.09e+06
 |  | Bgl3A (Evansstolkia leycettana; M56N) (protein) YGFGGSGWDAAYGRAKAALNKLNQTEKVGIVTGVKWNGGPCVGNTYKPSSIDYPSLCLQDSPLGVRFANPVTAFPAGINAGATWDRSLINARGAAMGAEAKGLGVNVQLGPVAGPLGKNPNSGRIWEGFSNDPYLSGVAMEETIAGMQGSGVQACAKHYIGNEQEHNRETISSNIDDRTLHELYVWPFMNAVKANVASVMCSYNKVNGSWSCENDALLNGLLKTELGFPGYIMSDWNAQHTTVNSANSGLDMTMPGSDFNNPPGSIYWGPNLEAAVANGSVPQSRLDDMVTRILASWHLVGQDEGYPPVAFSSWNGGKANVDVTGDHKSVVRAVARDSTVLLKNDNNALPLRKPKSLAIIGQDATVNPAGPNACSDRGCDTGTLAMGWGSGTAQFPYIVGPLDAIQSQAAADGTNITTSTTDDTTAAASAAASAGTAIVFINSDSGEGYITVEGNAGDRNNLDPWHNGNELVQAVAAANKNVIVVVHSVGPVILETILAQPNVKAIVWPGLPGQESGNALVDVLYGSTSPSGKLPYTIAKQFSDYGTTWTTSLVDDFTEGLFIDYRHFDENNITPRYEFGYGLSYTTFKYSDLDVNVQARPGAAEGPIVPGGVKELFDTVGTVTVTVQNSGKVAGAEVAQLYIGLPDSAPSTPPKQLRGFQKLHLAPGQREGATFELTRRDISYWDVQQQKWVVPSGTFKVYVGSSSRDIREQGSFRI | 590 ± 70 | 1070 | 1.79e+06
 |  | Bgl3A (Evansstolkia leycettana; E188Q) (protein) YGFGGSGWDAAYGRAKAALNKLNQTEKVGIVTGVKWMGGPCVGNTYKPSSIDYPSLCLQDSPLGVRFANPVTAFPAGINAGATWDRSLINARGAAMGAEAKGLGVNVQLGPVAGPLGKNPNSGRIWEGFSNDPYLSGVAMEETIAGMQGSGVQACAKHYIGNEQEHNRQTISSNIDDRTLHELYVWPFMNAVKANVASVMCSYNKVNGSWSCENDALLNGLLKTELGFPGYIMSDWNAQHTTVNSANSGLDMTMPGSDFNNPPGSIYWGPNLEAAVANGSVPQSRLDDMVTRILASWHLVGQDEGYPPVAFSSWNGGKANVDVTGDHKSVVRAVARDSTVLLKNDNNALPLRKPKSLAIIGQDATVNPAGPNACSDRGCDTGTLAMGWGSGTAQFPYIVGPLDAIQSQAAADGTNITTSTTDDTTAAASAAASAGTAIVFINSDSGEGYITVEGNAGDRNNLDPWHNGNELVQAVAAANKNVIVVVHSVGPVILETILAQPNVKAIVWPGLPGQESGNALVDVLYGSTSPSGKLPYTIAKQFSDYGTTWTTSLVDDFTEGLFIDYRHFDENNITPRYEFGYGLSYTTFKYSDLDVNVQARPGAAEGPIVPGGVKELFDTVGTVTVTVQNSGKVAGAEVAQLYIGLPDSAPSTPPKQLRGFQKLHLAPGQREGATFELTRRDISYWDVQQQKWVVPSGTFKVYVGSSSRDIREQGSFRI | 210 ± 30 | 1740 | 8.39e+06
